In patent publication US20200207850A1 (MacroGenics, published 2020):

How the values were obtained:
[1] = biological target: HIV env on Jurkat 522 FY cells (HIV); test: cell-based or functional assay
[2] = biological target: HIV env on Jurkat 522 FY cells (HIV); test: cell-based or functional assay; remark: listed apart in the source
[3] = biological target: T1, CD8 on human T cells (PBMC) (human, UniProt P01732 22-235); test: flow cytometry on human PBMC, CD5+/CD4- gated cells (bear CD8 and CD3), detection anti-human Fc (MFI)
T1 construct: whole, on cells; The CD8+ (CD5+ CD4-) cells also carry CD3; also called CD5+ CD4- gated PBMC; CD8+ T cells
T1 sequence (P01732 22-235): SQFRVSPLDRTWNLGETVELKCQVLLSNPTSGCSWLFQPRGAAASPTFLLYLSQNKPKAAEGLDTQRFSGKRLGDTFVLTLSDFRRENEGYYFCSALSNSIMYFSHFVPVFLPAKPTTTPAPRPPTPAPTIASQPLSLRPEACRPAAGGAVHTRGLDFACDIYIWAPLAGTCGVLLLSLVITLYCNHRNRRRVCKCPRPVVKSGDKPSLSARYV
Experimental: Human blood was lysed with ACK lysing buffer, washed 2× with PBS and re-suspended in FACS buffer contained 10% Human AB serum and incubated at room temperature for 20 minutes. Thereafter, the cells were pelleted by centrifugation and re-suspended (4×10⁶ cells/mL) in FACS buffer. 50 μL of serial titrated Tri-Specific Binding Molecules were added into wells of a 96-well deep plate. 50 μL of the cells (4×10⁶ cells/mL) well-mixed cells in FACS buffer containing 0.01% sodium azide were then added into corresponding wells and mixed thoroughly using a pipette. The plate was incubated in the dark for about 45 minutes at 2-8° C. At the end of incubation, the cells were washed twice by adding 300 μL of FACS buffer to each well, the plate was centrifuged at 1,200 rpm for 5 minutes, and the supernatant was discarded. The cell pellets were re-suspended in 100 μL mixture of goat anti-Human IgG Fcγ-PE, CD5-APC and CD4-PerCP5.5 prepared in FACS buffer containing 0.01% sodium azide, and the cells were incubated in the dark for about 45 minutes at 2-8° C. At the end of the incubation, the cells were washed, re-suspended with FACS buffer, and analyzed with a BD Caliber flow cytometer.

human CD3 = human CD3 (human, UniProt P07766 23-126); test: binding kinetics sensorgram (RU against time), panel labelled hCD3
Chain of human CD3 (P07766 23-126): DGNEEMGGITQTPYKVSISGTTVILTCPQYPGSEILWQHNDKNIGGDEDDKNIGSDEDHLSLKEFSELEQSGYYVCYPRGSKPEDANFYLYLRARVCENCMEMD

Binder | EC50 nM, % cytotoxicity (LDH), Jurkat Cells 522FY, E/T = 5:1 [1] | EC50 nM, % cytotoxicity (LDH), Jurkat Cells 522FY, E/T = 10:1 [1] | EC50, nM, % cytotoxicity (LDH), Jurkat Cells 522FY, CD4 effector cells [2] | EC50, nM, % cytotoxicity (LDH), Jurkat Cells 522FY, CD8 effector cells [2] | EC50, nM, % cytotoxicity (LDH), Jurkat Cells 522FY, Pan T effector cells [2] | EC50 (read off the curve) [3] | Kd (human CD3)
HIV mAb 1/CD3 mAb 2/CD8 mAb 1 Tri-Specific Binding Molecule (other) chain 1: DIVMTQSPDSLAVSPGERATIHCKSSQTLLYSSNNRHSIAWYQQRPGQPPKLLLYWASMRLSGVPDRFSGSGSGTDFTLTINNLQAEDVAIYYCHQYSSHPPTFGHGTRVEIKGGGSGGGGEVQLVESGGGLVQPGGSLRLSCAASGFTFSTYAMNWVRQAPGKGLEWVGRIRSKYNNYATYYADSVKGRFTISRDDSKNSLYLQMNSLKTEDTAVYYCVRHGNFGNSYVSWFAYWGQGTLVTVSSASTKGEVAACEKEVAALEKEVAALEKEVAALEKGGGDKTHTCPPCPAPEAAGGPSVFLFPPKPKDTLMISRTPEVTCVVVDVSHEDPEVKFNWYVDGVEVHNAKTKPREEQYNSTYRVVSVLTVLHQDWLNGKEYKCKVSNKALPAPIEKTISKAKGQPREPQVYTLPPSREEMTKNQVSLWCLVKGFYPSDIAVEWESNGQPENNYKTTPPVLDSDGSFFLYSKLTVDKSRWQQGNVFSCSVMHEALHNHYTQKSLSLSPGK chain 2: QAVVTQEPSLTVSPGGTVTLTCRSSTGAVTTSNYANWVQQKPGQAPRGLIGGTNKRAPWTPARFSGSLLGGKAALTITGAQAEDEADYYCALWYSNLWVFGGGTKLTVLGGGGSGGGGQVQLVQSGGGVFKPGGSLRLSCEASGFTFTEYYMTWVRQAPGKGLEWLAYISKNGEYSKYSPSSNGRFTISRDNAKNSVFLQLDRLSADDTAVYYCARADGLTYFSELLQYIFDLWGQGARVTVSSASTKGKVAACKEKVAALKEKVAALKEKVAALKE heavy: EVQLQQSGAELVKPGASVKLSCTASGFNIKDTYIHFVRQRPEQGLEWIGRIDPANDNTLYASKFQGKATITADTSSNTAYMHLCSLTSGDTAVYYCGRGYGYYVFDHWGQGTTLTVSSASTKGPSVFPLAPSSKSTSGGTAALGCLVKDYFPEPVTVSWNSGALTSGVHTFPAVLQSSGLYSLSSVVTVPSSSLGTQTYICNVNHKPSNTKVDKRVEPKSCDKTHTCPPCPAPEAAGGPSVFLFPPKPKDTLMISRTPEVTCVVVDVSHEDPEVKFNWYVDGVEVHNAKTKPREEQYNSTYRVVSVLTVLHQDWLNGKEYKCKVSNKALPAPIEKTISKAKGQPREPQVYTLPPSREEMTKNQVSLSCAVKGFYPSDIAVEWESNGQPENNYKTTPPVLDSDGSFFLVSKLTVDKSRWQQGNVFSCSVMHEALHNRYTQKSLSLSPG light: DVQINQSPSFLAASPGETITINCRTSRSISQYLAWYQEKPGKTNKLLIYSGSTLQSGIPSRFSGSGSGTDFTLTISGLEPEDFAMYYCQQHNENPLTFGAGTKLELRRTVAAPSVFIFPPSDEQLKSGTASVVCLLNNFYPREAKVQWKVDNALQSGNSQESVTEQDSKDSTYSLSSTLTLSKADYEKHKVYACEVTHQGLSSPVTKSFNRGEC | 0.00019 nM | 0.00029 nM | 0.36 nM | 0.00781 nM | 0.044 nM | ~800 pM | –
HIV mAb 2/CD3 mAb 2/CD8 mAb 1 Tri-Specific Binding Molecule (other) chain 1: QSALTQPPSASGSPGQSVTISCTGTSSDVGGYNYVSWYQHHPGKAPKLIISEVNNRPSGVPDRFSGSKSGNTASLTVSGLQAEDEAEYYCSSYTDIHNFVFGGGTKLTVLGGGSGGGGEVQLVESGGGLVQPGGSLRLSCAASGFTFSTYAMNWVRQAPGKGLEWVGRIRSKYNNYATYYADSVKGRFTISRDDSKNSLYLQMNSLKTEDTAVYYCVRHGNFGNSYVSWFAYWGQGTLVTVSSASTKGEVAACEKEVAALEKEVAALEKEVAALEKGGGDKTHTCPPCPAPEAAGGPSVFLFPPKPKDTLMISRTPEVTCVVVDVSHEDPEVKFNWYVDGVEVHNAKTKPREEQYNSTYRVVSVLTVLHQDWLNGKEYKCKVSNKALPAPIEKTISKAKGQPREPQVYTLPPSREEMTKNQVSLWCLVKGFYPSDIAVEWESNGQPENNYKTTPPVLDSDGSFFLYSKLTVDKSRWQQGNVFSCSVMHEALHNHYTQKSLSLSPGK chain 2: QAVVTQEPSLTVSPGGTVTLTCRSSTGAVTTSNYANWVQQKPGQAPRGLIGGTNKRAPWTPARFSGSLLGGKAALTITGAQAEDEADYYCALWYSNLWVFGGGTKLTVLGGGGSGGGGQVQLQESGPGLVKPSQTLSLSCTVSGGSSSSGAHYWSWIRQYPGKGLEWIGYIHYSGNTYYNPSLKSRITISQHTSENQFSLKLNSVTVADTAVYYCARGTRLRTLRNAFDIWGQGTLVTVSSASTKGKVAACKEKVAALKEKVAALKEKVAALKE heavy: EVQLQQSGAELVKPGASVKLSCTASGFNIKDTYIHFVRQRPEQGLEWIGRIDPANDNTLYASKFQGKATITADTSSNTAYMHLCSLTSGDTAVYYCGRGYGYYVFDHWGQGTTLTVSSASTKGPSVFPLAPSSKSTSGGTAALGCLVKDYFPEPVTVSWNSGALTSGVHTFPAVLQSSGLYSLSSVVTVPSSSLGTQTYICNVNHKPSNTKVDKRVEPKSCDKTHTCPPCPAPEAAGGPSVFLFPPKPKDTLMISRTPEVTCVVVDVSHEDPEVKFNWYVDGVEVHNAKTKPREEQYNSTYRVVSVLTVLHQDWLNGKEYKCKVSNKALPAPIEKTISKAKGQPREPQVYTLPPSREEMTKNQVSLSCAVKGFYPSDIAVEWESNGQPENNYKTTPPVLDSDGSFFLVSKLTVDKSRWQQGNVFSCSVMHEALHNRYTQKSLSLSPG light: DVQINQSPSFLAASPGETITINCRTSRSISQYLAWYQEKPGKTNKLLIYSGSTLQSGIPSRFSGSGSGTDFTLTISGLEPEDFAMYYCQQHNENPLTFGAGTKLELRRTVAAPSVFIFPPSDEQLKSGTASVVCLLNNFYPREAKVQWKVDNALQSGNSQESVTEQDSKDSTYSLSSTLTLSKADYEKHKVYACEVTHQGLSSPVTKSFNRGEC | 0.00032 nM | 0.00026 nM | 0.45 nM | 0.0004 nM | 0.0015 nM | ~600 pM | –
DART molecule having the CD3 mAb 2 Fast Binding Domain (bispecific antibody, V domains shown, also called anti-human CD3 mAb 2 Fast) VH: EVQLVESGGGLVQPGGSLRLSCAASGFTFSTYAMNWVRQAPGKGLEWVGRIRSKYNNYATYYADSVKGRFTISRDDSKNSLYLQMNSLKTEDTAVYYCVRHKNFGNSYVTWFAYWGQGTLVTVSS VL: QAVVTQEPSLTVSPGGTVTLTCRSSTGAVTTSNYANWVQQKPGQAPRGLIGGTNKRAPWTPARFSGSLLGGKAALTITGAQAEDEADYYCALWYSNLWVFGGGTKLTVLG | – | – | – | – | – | – | 13900 pM
